Measured values taken from the supplement of paper PMC9170038.

Test system: K4 kissing-loop RNA reporter
Assay: apparent KD of K4 kissing-loop reporter; higher = weaker reporter binding
Settings: Eterna round: R107
Description: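 RNA-MaP round R107: designed RNA switches with theophylline, tryptophan, arginine or FMN aptamers are transcribed on-chip within common flanks. They are titrated with a labelled K4 kissing-loop RNA reporter in RNA-MaP buffer (100 mM Tris pH 7.5, 80 mM KCl, 4 mM MgCl2), without ligand or with the indicated ligand. Median apparent KD per design.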

[1] = input ligand: theophylline 20 uM
[2] = input ligand: tryptophan 2.4 mM
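Also: bound reporter read as fluorescence of individual clusters on recovered sequencing chips by microscopy, with normalized cluster intensities fitted with a binding model.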

Sequence | apparent KD of K4 kissing-loop reporter (input ligand: FMN 200 uM) [nM] | apparent KD of K4 kissing-loop reporter (input ligand: arginine 13.2 mM) [nM] | apparent KD of K4 kissing-loop reporter (input ligand: none) [nM] | apparent KD of K4 kissing-loop reporter [1] [nM] | apparent KD of K4 kissing-loop reporter [2] [nM]
AGAACUGUCUGAGAUACCAGCCAUAGGAGUGAUGUUCCUAGCUCCACAAAGUGGAGCCAUGGCCCUUGGCAGCUCAGACAGUUCA [Omei KL Theo B SS A v8] | 219 | 191 | 219 | 133 | 206
AUAAACUUGCAGUGAUGUUGCAAGUGAGACUAGGAUAUCAGGAAGCUGAGAAGGAGUCAUCUCCUUCAGACAUCACUAUGAAGGA [whbob_SS_FMNA__2th179] | 334 | 191 | 251 | 205 | 232
AGAAAGAAGGCGGCCGCCACUCUGAUGGGCGAAAGCCCAUUUUUUUAGCAGUGAUGUUGCUUGUUGAGGACCGGGCCAAAGAAAU [2nd] | 179 | 174 | 155 | 193 | 114
AGGAAGUGAGAAGGAUAUUACACUCGGAAGCGCUAGUGAUGUUAGCAUAGAAACAAGGGAACAUGGUAAGAAGGUCUUACAAUGA [theeternabot_sameState_KL_FMN_B_2] | 76.6 | 71.6 | 38.9 | 69.5 | 40.1
AUUAAUUUCAGAGGAUAUCGUUAUUUUUUAUAUUUUAUUCAUUUAUGCAGUGAUGUUGCUAUUAAUCGAGAAGGCUGAUUUAUAA [JR_ExcFMNB_Sub003] | 85.5 | 114 | 47.1 | 120 | 49.4
UUCGUAGUAGGAAACUAUUACGAAAAGGAAGGAGCGGCGAAGAAGCCAGGUAGGUCGCCUAUUGACAGUGAUGUUGUUAUAUAGA [#10] | 144 | 239 | 176 | 205 | 162
AAGCAGUCACUCGAACCCAUCGAAGAUGGUCGAGGACCGGUACGGCCGCCACUCGGAGUGAUGUUCCGCAGACUGCAAAAUAAAA | 376 | 464 | 426 | 511 | 312
AUUCAUUUCAGAGGAUAUCGCUGGAGAGUGAUGUUCUCCCAUAGUCAGUGAUGUUGGCUAGCUAUGCGAGAAGGCUGUGGGUGGA [Same State FMN B GF 28] | 143 | 396 | 397 | 356 | 384
AAGUCAUAUAGAAGGAGCGUGUUUUUUAAUUUGUUUUCAUGAUCGAGUGAUGUUCGAUAUACACAGGUAGGUCGCUGUAUGAUAA [hbob_SS_Arginine_B_2t143] | 128 | 146 | 130 | 177 | 114
CGAUACGGAAAUACGUGUCUCUAUUCAGAAGGAGCGUGGUAGUACACAGGUAGGUCGCUGAAAUUUAAACUAGUGAUGUUAGACU [JR_SSArginiA_Sub004] | 1330 | 742 | 1190 | 884 | 905
GCCAUCAGGUCGCAAGACCUGAUAGCCGAUACCAGCGCGAAGGUGCGCCCUUGGCAGCGGCACCGAGUGAUGUUCGGUCAGGCGG [#2 Same State - Theophylline A Attempt #3 (HarryS)] | 490 | 490 | 595 | 291 | 554
AAACAUCACUGGGAGUGAUGUUCUCAGUGACGAGGACCGGUACGGCCGCCACUCGCGAGAGAUAUAAAUGAGUAAUGACAUCAUU [Excl Tryptophan A V2] | 276 | 236 | 280 | 258 | 325
AGCGAUGUUUUCUCUAGGAGUGAUGUUUUUCGAGGACCGGUACGGCCGCCACUCGGACGACGAGUGUGGUAGUGGGCUGUUGACU [ffmullin] | 483 | 296 | 441 | 231 | 493
GCAUGCAUGGCAGGAUAUAAUCUGGAGUGAUGUUCCUUUAACCUUUCGAACGGCGAGCCAGGUUGAUUAGAAGGGCCAUGCAUGC | 435 | 476 | 622 | 628 | 530
UUGUAAAAGUCGGCCGCCACUCCGGGCCCUAUAAAUGGGCGCAGUGAUGUUGCGGCUAGGCCUCUGAGGACCGGGACUUUAUAGC [Xeismaarbe] | 115 | 85.1 | 125 | 66.8 | 201
UUUUAAAUAUCUGAUACCAGAGAAAAUAUAUGUAGUGAUGUUAUAUACAAAAUAAUUAAGCUCCCUUGGCAGCAGUAUUAAUUUU [AstrosExc-TheB#3] | 612 | 658 | 946 | 705 | 541
GGUAGCAUGGCGGCCGCCACUGCAAAGCAUAGCUACGGAAACGUAGCUACAGAGUGAUGUUCUGGCAGGACCGGGCCAUGCUACC | 675 | 487 | 692 | 683 | 330
UUUAUUAAGACGGCCGCCACUGAUUCAUAGUGAUGUUAUGAUAUAAUUUUAGUGAUUUUGAUUAGCAGGACCGGGUCAAUUAUUA [JR_ExcTryptoB_Sub016] | 221 | 179 | 196 | 194 | 172
UGAUUGCCAGUGAUGUUGGCAGUGACUGAAGGAGCGCGUGAAAACGCAGGUAGGUCGCAGUUGAGUGCCAAUUGAUCGAAAGAUC [KL-XArg-A5] | 286 | 275 | 244 | 328 | 249
UUCAGGUGUUCGGCCGCCACUCCAGUGAUGUUGGAGUGGCUUCACAAGGACCAGGACAAUGUAAGGAGGACCGGGAAUAUCGCAG [Leerat] | 143 | 110 | 131 | 115 | 125
AAGGCCACGAGAAGGAGCGUGUUGUGGAGUGAUGUUCCAUUGUAGACCUAAGGUCUACAAGCACAGGUAGGUCGCUCGUGGUCAA [Omei KL Arginine B SS A v5] | 131 | 120 | 132 | 112 | 119
GGAUAGGAUAGAGGAUAUGGUAGUGAUGUUACCAAACUGGUUAAACAUGUCAGAAAACUGGCAUGACCAGAAGGUUGUCCUAUCG [FmnBX 27 U9+U75] | 80.5 | 57.1 | 70.5 | 66.9 | 61.5

Sequence | apparent KD of K4 kissing-loop reporter (input ligand: FMN 200 uM) [nM] | apparent KD of K4 kissing-loop reporter (input ligand: arginine 13.2 mM) [nM] | apparent KD of K4 kissing-loop reporter (input ligand: none) [nM] | apparent KD of K4 kissing-loop reporter [1] [nM] | apparent KD of K4 kissing-loop reporter [2] [nM]
GAUAUAGUGAUGUUAUAUACUGAUAGACAACGAGGACCGGUACGGCCGCCACUCGAGAGGGUGAAAUUAAUGAUAAAAUAAUAAU [ExyTryA#2] | 322 | 351 | 356 | 307 | 270
AACGUAGCUACUGAUACCAGACUUUUUCUUGUAUAUUAGUCAAGUGAUGUUUGACUUUUAGUCCCUUGGCAGCAGUUGCUACGAA [JR_Nu_SSTheophyB_Sub028] | 89.2 | 84.3 | 91.4 | 82.6 | 98.3
CAUAGGAAACUAUGUUUCUCUCUUACUGAAGGAGCGCGUGAAAACGCAGGUAGGUCGCAGAAUUUAAAAGAGAGUGAUGUUCUCA [Ex Arginine A K4 11] | 431 | 374 | 598 | 572 | 446
AUUCAUGAGUGAUGUUCAUCGGCAGGAGAUACCAGCGAGUUAACCCGCCCUUGGCAGCUCAAGUAUAGGGACUCUGGCAUCGCCU [theeternabot_exclusion_KL_Theo_A_18] | 406 | 374 | 547 | 405 | 369
AGAGUUAUGCGAGGAUAUGCGGUUAGUACUCAAAGAGUACUAACGGCAGAGUGAUGUUCUGUGAAAGCAGAAGGUGCAUAACUCA [Omei KL FMN B SS B v9] | 274 | 523 | 1090 | 327 | 1360
GUUACGCAUGGAAGGAGCGCAUGCUCAACUAUAAGCUCAGUGAUGUUGAGCAUUUUUUUUUUGCAGGUAGGUCGCCAUGUGUAAC [Ex Arginine B K4 29] | 320 | 255 | 386 | 438 | 217
ACCUACGAUCACGAAAGUGAUUGUAGGAUCUAGGAUAUGCUGAAGAGCAGAAGGAGAGUGAUGUUCUCAUCUCACGAAAGUGAGA [whbob_Ex_FMNA__2th190] | 437 | 206 | 217 | 245 | 221
CGCAGUGAUGUUGCGAGUAGCUACAGGGAAGGAGCGUGCUAGAGCACAGGUAGGUCGCCCAGUGGCAGUGAUGUUGCCAAAGGGU [Exclusion ARginine A GF 17] | 126 | 119 | 118 | 126 | 116
CGUACGGUUUCUUUCUUUCCGUACGCGUGCCGAGGACCGGUACGGCCGCCACUCGCUACAGCCUAGUGAUGUUAGGCAAUUCUUU | 107 | 111 | 112 | 124 | 89.9
GUAACCUUGCUCGAGUGAUGUUCGAGCGAAGGAGCGCGAGAAAUCGCAGGUAGGUCGCGCUCGAAAUUUGAGCGAACAAUUAUUA [Arg A Ex t2] | 128 | 125 | 138 | 123 | 113
UUUAAACAUAGUGAUGUUAUGUAACAAUGACGAGGACCGGUACGGCCGCCACUCGAGAGAGAUGAUGGUAAAAUAAAUAAUUUUC [#10 K4 Tryptophan A Same State] | 105 | 124 | 107 | 113 | 90.6
GAAGUACAGGCGGCCGCCACUAGUGAUGUUAGUGAUAAAAGAUAAAGUAUAUAUCGGCAUGUAGAUAGGACCGGGCCUGAUGGAG [uiiumullin] | 118 | 296 | 186 | 203 | 298
GUGAAGGAGAUGCAGUGAUGUUGCAGAGACUAGGAUAUCAGGAAACUGAGAAGGAGUCAAUUCCUUCAUUUAGACUGCAACAUAA [KL-SSFMN-A12] | 204 | 139 | 138 | 296 | 191
AACUUAAUUUAUAAGCAGUGAUGUUGCUUACGAGGACCGGUACGGCCGCCACUCGAUCGCAUUUAUGUCUUCAAUUAAUUCAUUA [JR_ExcTryptoA_Sub016] | 178 | 196 | 197 | 237 | 195
GCAGUCAAUCGACCACGAAAGUGGAUGGAUACCAGAGUCGAAAGACUCCCUUGGCAGCCAGUGAUGUUGGAAGACUGCAAUAAAA [#SwitchBubble 16 #K4Late] | 1120 | 357 | 622 | 479 | 468
UCUUGUUCAUAGUGAUGUUAUGAGCUUAGAAAGGAUAUGAUCAACAUCAGAAGGUUCAAGGAUUCCCGACUCCAACUUCGGUUUC [theeternabot_sameState_KL_FMN_A_43] | 280 | 270 | 306 | 339 | 332
CUCGAGUGAUGUUCGAUUAUUUAUACAGAUACCAGUGAAUUUUAACACCCUUGGCAGCUGGUAGUAUCUUUGUAAUUUUAACUAG [JR_ExcTheophyA_Sub003] | 133 | 181 | 147 | 176 | 111
AAUUCAGCUAGUGAUGUUAGCGUAGAGUGCAAGGAUAUCCCUGUCAGGAGAAGGUGCGUAGAACGUUUGCCAUCAGAUUGUCCCA [theeternabot_exclusion_KL_FMN_A_48] | 176 | 97.2 | 118 | 104 | 109
UGUCAUUGGUCGGCCGCCACUUCAUAGAGAGUGAUGUUCUUAAAGACGGAUCGAAAGAUCUGUCGAAGGACCGGGACCGAUGACU [FiskerMod 9 - Jieux - Same State - Tryptophan B] | 997 | 676 | 1400 | 783 | 302
UAUACGCUAGUGAUGUUGGCGAAGACUGAAGGAGCGUGCGAGAGUACAGGUAGGUCGCAGUCAGACAGAUUGUACCUGUCUUAUG [Arg A SS t10] | 268 | 243 | 295 | 349 | 356
GCCGUAGAUUGAAGGAGCGGGAUAGAGAAAGUGAUGUUUUCUCUUUGACGGCGUCCUCGAUCCCAGGUAGGUCGCAAUCUACGGC | 76.1 | 75.2 | 81.2 | 73.5 | 70.2
